{
  "source": "patent US20230340555A1",
  "about": "“PRODUCTION OF GLYCOSYLATED CANNABINOIDS” (WILLOW BIOSCIENCES, INC., priority 2020, published 2023)",
  "molecules": {"B1": {"name": "AtUGT76D1: UDP-glycosyl transferase from Arabidopsis thaliana, amino acid sequence SEQ ID NO: 30 (protein, listed as Arabidopsis thaliana)", "chain": "MAEIRQRRVLMVPAPFQGHLPSMMNLASYLSSQGFSITIVRNEFNFKDISHNFPGIKFFTIKDGLSESDVKSLGLLEFVLELNSVCEPLLKEFLTNHDDVVDFIIYDEFVYFPRRVAEDMNLPKMVFSPSSAATSISRCVLMENQSNGLLPPQDARSQLEETVPEFHPFRFKDLPFTAYGSMERLMILYENVSNRASSSGIIHNSSDCLENSFITTAQEKWGVPVYPVGPLHMTNSAMSCPSLFEEERNCLEWLEKQETSSVIYISMGSLAMTQDIEAVEMAMGFVQSNQPFLWVIRPGSINGQESLDFLPEQFNQTVTDGRGFVVKWAPQKEVLRHRAVGGFWNHGGWNSCLESISSGVPMICRPYSGDQRVNTRLMSHVWQTAYEIEGELERGAVEMAVRRLIVDQEGQEMRMRATILKEEVEASVTTEGSSHNSLNNLVHAIMMQIDEQ"}, "B2": {"name": "At5g65550: UDP-glycosyl transferase from Arabidopsis thaliana, amino acid sequence SEQ ID NO: 26 (protein, listed as Arabidopsis thaliana)", "chain": "MAEPKPKLHVAVFPWLALGHMIPYLQLSKLIARKGHTVSFISTARNISRLPNISSDLSVNFVSLPLSQTVDHLPENAEATTDVPETHIAYLKKAFDGLSEAFTEFLEASKPNWIVYDILHHWVPPIAEKLGVRRAIFCTFNAASIIIIGGPASVMIQGHDPRKTAEDLIVPPPWVPFETNIVYRLFEAKRIMEYPTAGVTGVELNDNCRLGLAYVGSEVIVIRSCMELEPEWIQLLSKLQGKPVIPIGLLPATPMDDADDEGTWLDIREWLDRHQAKSVVYVALGTEVTISNEEIQGLAHGLELCRLPFFWTLRKRTRASMLLPDGFKERVKERGVIWTEWVPQTKILSHGSVGGFVTHCGWGSAVEGLSFGVPLIMFPCNLDQPLVARLLSGMNIGLEIPRNERDGLFTSASVAETIRHVVVEEEGKIYRNNAASQQKKIFGNKRLQDQYADGFIEFLENPIAGV"}, "B3": {"name": "AtUGT85A3: UDP-glycosyl transferase from Arabidopsis thaliana, amino acid sequence SEQ ID NO: 22 (protein, listed as Arabidopsis thaliana)", "chain": "MGSRFVSNEQKPHVVCVPYPAQGHINPMMKVAKLLHVKGFHVTFVNTVYNHNRLLRSRGANALDGLPSFQFESIPDGLPETGVDATQDIPALSESTTKNCLVPFKKLLQRIVTREDVPPVSCIVSDGSMSFTLDVAEELGVPEIHFWTTSACGFMAYLHFYLFIEKGLCPVKDASCLTKEYLDTVIDWIPSMNNVKLKDIPSFIRTTNPNDIMLNFVVREACRTKRASAIILNTFDDLEHDIIQSMQSILPPVYPIGPLHLLVNREIEEDSEIGRMGSNLWKEETECLGWLNTKSRNSVVYVNFGSITIMTTAQLLEFAWGLAATGKEFLWVMRPDSVAGEEAVIPKEFLAETADRRMLTSWCPQEKVLSHPAVGGFLTHCGWNSTLESLSCGVPMVCWPFFAEQQTNCKFSCDEWEVGIEIGGDVKRGEVEAVVRELMDGEKGKKMREKAVEWRRLAEKATKLPCGSSVINFETIVNKVLLGKIPNT"}, "B4": {"name": "CsUGT75D1-DN11028: UDP-glycosyl transferase from Cannabis sativa, amino acid sequence SEQ ID NO: 38 (protein, listed as Cannabis sativa)", "chain": "MKRTLLFIPSPGIGHLVSMLEFAKRLIQYDDRLFITILSMKFPNHDAYINSLVPSLSQSRVKLAHLPQVDPPPPKLLNSPESYIYVYVESLVPHVRDALKHIVPSHSNSETTHSQGCFVMVLDFFCMPMMDVANELGLPSYMFMPSNIGFLSSMLYLATRHDQISSELKESNPDEYSLKSFHNPVPWSALPQAYFCKDGGYSACVKMAQRFRETKGIIVNSFEGLEAHGATSFNDGETPPIYMVGPVVNFKGQPHSSTDHVQNNRIFKWLDEQPQSSVVFLCFASLGTFDASQLREIASGLECSGHRFLWCIRVQQPTIIDEILPEGFLERIGSKGMICNEWTPQVEVLAHNAVGGFVSHCGWNSILESLWYGVPIVTWPVYAEQQLNAFQMVREFDLAIELRLDYRNRGHNQLVTAEEIGNAIKKLMEGDHNVVMRKKGASGISSMVLSRFYTCKENVVLRQDPRWFAIKAGGEEK"}, "B5": {"name": "AtUGT73B1: UDP-glycosyl transferase from Arabidopsis thaliana, amino acid sequence SEQ ID NO: 24 (protein, listed as Arabidopsis thaliana)", "chain": "MGVFGSNESSSMSIVMYPWLAFGHMTPFLHLSNKLAEKGHKIVFLLPKKALNQLEPLNLYPNLITFHTISIPQVKGLPPGAETNSDVPFFLTHLLAVAMDQTRPEVETIFRTIKPDLVFYDSAHWIPEIAKPIGAKTVCFNIVSAASIALSLVPSAEREVIDGKEMSGEELAKTPLGYPSSKVVLRPHEAKSLSFVWRKHEAIGSFFDGKVTAMRNCDAIAIRTCRETEGKFCDYISRQYSKPVYLTGPVLPGSQPNQPSLDPQWAEWLAKFNHGSVVFCAFGSQPVVNKIDQFQELCLGLESTGFPFLVAIKPPSGVSTVEEALPEGFKERVQGRGVVFGGWIQQPLVLNHPSVGCFVSHCGFGSMWESLMSDCQIVLVPQHGEQILNARLMTEEMEVAVEVEREKKGWFSRQSLENAVKSVMEEGSEIGEKVRKNHDKWRCVLTDSGFSDGYIDKFEQNLIELVKS"}, "B6": {"name": "CsUGT71 D1-DN48028: UDP-glycosyl transferase from Cannabis sativa, amino acid sequence SEQ ID NO: 40 (protein, listed as Cannabis sativa)", "chain": "MARVELVFIPAPAIGHLVSTLEFAKRLIHYDHRLFITVLCEFSLKSHLDAYIDSLVASLSLAHRIKLVHLPLVDSPPVELLKSIENFIYQYMESLVPHVRKALTDIVSSNSNYSQGDVVLVLDFFCMPMMDVANELGLPSYMFMTSNLGLLSLMFYLATRHNQISSELEESDAPLRLQGFQNPVPSSVLPTAAFCKDGGYSAYVKLAQRFRETKGIIVNSFEELESYSFSSMNDGAETPPIYMVGPVLDLNGQPHPSMDQVQNDKILKWLDEQPHSSVVFLCFGSMGKFGASQLREIASGLQRSGHRFLWSVRVQQPTTIDEILPEGFLEQIGSKGMICNEWAPQVKILAHSAVGGFLSHCGWNSILESLWYGVPVATWPIYAEQQLNAFRMVREFGLAVDLRLDYKDRGDDHIVSAEEIETAVKHLMEGDKEVRKKVKEMSETARKSVEEGGSSFTAIGKLINSIIGSNYY"}, "B7": {"name": "AtUGT76B1: UDP-glycosyl transferase from Arabidopsis thaliana, amino acid sequence SEQ ID NO: 28 (protein, listed as Arabidopsis thaliana)", "chain": "METRETKPVIFLFPFPLQGHLNPMFQLANIFFNRGFSITVIHTEFNSPNSSNFPHFTFVSIPDSLSEPESYPDVIEILHDLNSKCVAPFGDCLKKLISEEPTAACVIVDALWYFTHDLTEKFNFPRIVLRTVNLSAFVAFSKFHVLREKGYLSLQETKADSPVPELPYLRMKDLPWFQTEDPRSGDKLQIGVMKSLKSSSGIIFNAIEDLETDQLDEARIEFPVPLFCIGPFHRYVSASSSSLLAHDMTCLSWLDKQATNSVIYASLGSIASIDESEFLEIAWGLRNSNQPFLWVVRPGLIHGKEWIEILPKGFIENLEGRGKIVKWAPQPEVLAHRATGGFLTHCGWNSTLEGICEAIPMICRPSFGDQRVNARYINDVWKIGLHLENKVERLVIENAVRTLMTSSEGEEIRKRIMPMKETVEQCLKLGGSSFRNLENLIAYILSF"}},
  "data": [
    {"tested_on": "CN3 yeast strain host cells", "experiment": "Detection of glycosylated cannabinoids and cannabinoid precursors in yeast cells expressing UDP-glycosyl transferase (HPLC-MS)", "assay_type": "cell-based", "settings": "pellet or supernatant of recombinant yeast host cells transformed with the UGT", "description": "CN3 yeast strain host cells were transformed as described in Example 1 with one of the following heterologous UGT genes: (1) AtUGT73C6, (2) AtUGT73B4, (3) AtUGT71 D1, (4) AtUGT76E12, (5) AtUGT88A1, (6) HaUGT76G1-L, (7) At5g49690, (8) AtUGT76C4, (9) CsUGT73C6, (10) SrUGT76C1, (11) AtUGT85A3, (12) AtUGT73B1, (13) Atg65550, (14) AtUGT76B1, (15) ATUGT76B1, (16) CsUGT75B2, (17) CsUGT73B4, (18) CsUGT73B1, (19) CsUGT75D1-DN11028, and (20) CsUGT71D1-DN48028. The transformed host cells were pre-grown overnight in yeast extract peptone dextrose (YPD) growth medium and then back diluted into yeast extract peptone galactose (YPG) to OD600 = 0.2. […] Strains were incubated for 20 h at 28° C. rotating at 600 RPM in an EPOCH|2 microplate reader (BioTek). Subsequently, samples were treated with an extraction solvent (80 % Acetonitrile, 20 % Methanol) for 1 hour rotating at 100 RPM. After 20 minutes centrifugation at 12,000 RPM, the supernatant was filtered with a basix 13 mm syringe filter (0.22 µm pore size, Nylon membrane) and transferred to a new tube for further analysis.\nGlycosylated cannabinoid compounds and glycosylated cannabinoid precursor compounds were assayed in the supernatant and the cellular pellet employing HPLC and HPLC-MS analysis. HPLC and HPLC-MS analysis was carried out as described below to detect the following glycosylated cannabinoid and cannabinoid precursor compounds: CBGA monoglucoside, CBGA diglucoside, CBDA monoglucoside, CBDA diglucoside, CBGA glucuronic acid, CBD monoglucoside, CBD diglucoside, olivetolic acid monoglucoside (“OliAcid monoglucoside”), olivetolic acid diglucoside (“OliAcid diglucoside”).\nHPLC analysis was carried out on an Agilent Technologies 1290 Infinity system, consisting of a vacuum degasser, a binary pump, a thermostated autosampler, a thermostated column compartment and a diode array detector (DAD). A Zorbax Eclipse Plus EC-18 column (2.1 × 50 mm, 1.8 µm, Agilent, USA) was used with a mobile phase composed of 0.1% formic acid in both (A) water with 0.2 % Formic Acid and (B) Acetonitrile with 0.2 % Formic Acid. The chromatographic conditions were set as follows: 0.0-8.0 min linear gradient from 5 to 95% B; 8.1-9.09 min […], 9.10-11.0 min 5 to 95% A for equilibration of the column with the initial conditions. The flow rate was set at 0.4 ml/min. The column temperature was set at 40° C. The sample injection volume was 5 µL. The UV/DAD acquisitions were carried out in the range 190-400 nm and chromatograms were acquired at 265 and 350 nm.\nHPLC-MS analysis was carried out to confirm the identity of the HPLC peaks using an Agilent Technologies 6530 Accurate-Mass quadrupole time of flight (QToF) mass spectrometer operating in negative ionization (ESI -) mode. The mass spectrometer experimental parameters were set as follows: the capillary voltage was 3.5 kV, the nebulizer (N2) pressure was 35 psi, the drying gas temperature was 350° C., the drying gas flow was 11 L/min and the skimmer voltage was 65 V. Data were acquired by Agilent Mass Hunter software. The mass spectrometer was operated in full-scan mode in the m/z range 50-1100. Extracted ion chromatograms (EICs) were obtained with an accuracy of 10 ppm m/z from total ion chromatogram (TIC) employing the m/z corresponding to the molecular ions [M-H]^- 385.1504 for Olivetolic Acid Mono-Glucoside, 547.2032 for Olivetolic Acid di-Glucoside, 521.2756 for CBGA Mono-Glucoside, 683.3284 for CBGA Di-Glucoside, 535.2549 for CBGA Glucuronic Acid, 519.2600 for CBDA Mono-Glucoside, 475.2701 for CBD Mono-Glucoside, 637.3302 for CBD Di-Glucoside.\nThe glycosylated cannabinoid compounds and glycosylated cannabinoid precursor compounds were detected in a relative and semi-quantitative fashion. […]", "values": [
      {"molecule": "B1", "production of glycosylated cannabinoids or cannabinoid precursor compounds": "No production"},
      {"molecule": "B2", "production of glycosylated cannabinoids or cannabinoid precursor compounds": "No production"},
      {"molecule": "B3", "production of glycosylated cannabinoids or cannabinoid precursor compounds": "No production"},
      {"molecule": "B4", "production of glycosylated cannabinoids or cannabinoid precursor compounds": "No production"},
      {"molecule": "B5", "production of glycosylated cannabinoids or cannabinoid precursor compounds": "No production"},
      {"molecule": "B6", "production of glycosylated cannabinoids or cannabinoid precursor compounds": "No production"},
      {"molecule": "B7", "production of glycosylated cannabinoids or cannabinoid precursor compounds": "No production"}
    ]}
  ]
}
